{
  "source": "patent US20230045873A1",
  "target": "oxMIF (recombinant human MIF immobilized into microwell plates, transforming MIF to oxMIF) (human) (UniProt P14174)",
  "sequence (P14174 2-115 limits assumed)": "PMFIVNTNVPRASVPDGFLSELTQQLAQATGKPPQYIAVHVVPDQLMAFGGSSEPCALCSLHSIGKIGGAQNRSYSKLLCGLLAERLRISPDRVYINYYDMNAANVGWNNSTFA",
  "assay": "ELISA on immobilized MIF (oxMIF), protein L-HRP detection, mean of triplicate",
  "data": [
    {"substance": "Imalumab (C0008), anti-oxMIF monospecific antibody", "values": [
      {"measurement": "EC50", "value": 0.6, "unit": "nM"}
    ]}
  ]
}
